# Data published in the supplement of paper PMC10266784.
# B1: library; numbered along this chain (parent)
# chain: MAAAAAAAAEQQSSNGPVKKSMREKAVERRSVNKEHNSNFKAGYIPIDEDRLHKTGLRGRKGNLAICVIILLFILAVINLIITLVIWAVIRIGPNGCDSMEFHESGLLRFKQVSDMGVIHPLYKSTVGGRRNENLVITGNNQPIVFQQGTTKLSVENNKTSITSDIGMQFFDPRTQNILFSTDYETHEFHLPSGVKSLNVQKASTERITSNATSDLNIKVDGRAIVRGNEGVFIMGKTIEFHMGGNMELKAENSIILNGSVMVSTTRLPSSSSGDQLGSGDWVRYKLCMCADGTLFKVQVTSQNMGCQISDNPCGNTH
# Variants of: B1
# Experiment: SGCB cell-surface expression functional score (HA stain, bin4 vs bin1, normalised to synonymous) (log10 ratio); higher = more cell-surface SGCB (functional)
# Outline: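 HEK293 cells stably expressing alpha-, gamma- and delta-sarcoglycan received codon-saturation libraries of HA-tagged, YFP-fused human beta-sarcoglycan by lentiviral transduction at MOI <0.1, performed in duplicate. Cells positive for YFP were sorted after 72 hours and cultured for 5–7 days, then stained on ice with Alexa Fluor 647 anti-HA and fixed. Fixed cells were sorted into four 5% intensity bins and amplicon-sequenced, and the log ratio of highest-bin to lowest-bin variant frequency, as a median over codons and transductions, gives the functional score. Per section, synonymous variants were scaled to mean 0, SD 0.5.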
row,Variant,SGCB cell-surface expression functional score (log10)
1,Y285T,-1.86
2,Y285M,-2.09
3,Y285F,-0.2
4,Y285P,-0.24
5,Y285Q,-0.54
6,Y285V,-0.66
7,Y285D,-0.09
8,Y285A,-0.68
9,Y285S,-0.49
10,Y285K,-0.76
11,Y285H,-0.04
12,Y285W,0.09
13,Y285I,-1.22
14,Y285L,-0.66
15,Y285R,-1.05
16,Y285E,-2.12
17,Y285C,-0.68
18,Y285N,-0.74
19,Y285G,-0.29
20,S273W,0.09
21,S273E,0.08
22,S273V,-0.79
23,S273N,0.34
24,S273C,-0.58

row,Variant,SGCB cell-surface expression functional score (log10)
1,S273T,-0.52
2,S273L,-0.2
3,S273K,-0.55
4,S273P,-0.33
5,S273D,-0.07
6,S273M,-1.46
7,S273R,-0.14
8,S273A,-0.68
9,S273H,-0.82
10,S273Y,0.11
11,S273I,0.05
12,S273F,-1.31
13,S273Q,-0.2
14,S273G,-0.18
15,C290G,-0.08
16,C290K,-0.15
17,C290A,-0.08
18,C290I,0.02
19,C290H,-0.47
20,C290D,0.2
21,C290F,-0.75
22,C290E,0.01
23,L287Y,-0.22
24,L287W,-1.34

row,Variant,SGCB cell-surface expression functional score (log10)
1,L287S,-1.02
2,L287E,-0.2
3,L287K,-0.59
4,L287N,-2.02
5,L287P,0.16
6,L287M,-2.09
7,L287C,0.06
8,L287Q,-1.3
9,L287G,-0.84
10,L287A,-0.96
11,L287I,0.07
12,L287F,-0.14
13,L287R,-1.38
14,L287T,-0.72
15,L287H,-0.31
16,L287V,-0.04
17,L287D,-0.88
18,G274V,-0.14
19,G274F,-0.16
20,G274L,0.03
21,G274E,-0.62
22,G274S,0.17
23,G274Q,-0.28
24,G274C,-0.61

row,Variant,SGCB cell-surface expression functional score (log10)
1,G274T,0.16
2,G274D,-0.37
3,G274Y,0.47
4,G274H,-1.17
5,G274K,-0.77
6,G274I,0.31
7,G274M,-0.11
8,G274R,-0.37
9,G274P,-0.32
10,G274N,-0.16
11,G274W,-0.13
12,G274A,-0.37
13,K286N,-0.03
14,K286E,-0.77
15,K286W,-0.09
16,K286G,-0.81
17,K286Q,-0.61
18,K286R,-1
19,K286M,0.29
20,K286D,-1.17
21,K286I,-0.67
22,K286H,-1.12
23,K286V,0.03
24,K286P,0.02

row,Variant,SGCB cell-surface expression functional score (log10)
1,K286L,-0.42
2,K286C,-1.06
3,K286S,-1.02
4,K286T,-1.08
5,K286Y,-0.08
6,K286F,-0.07
7,K286A,-0.54
8,C288R,-0.93
9,C288P,-0.81
10,C288V,-0.72
11,C288F,-0.71
12,C288G,-0.27
13,C288Q,-0.16
14,C288Y,-0.01
15,C288E,0.01
16,C288H,-1
17,C288I,-0.55
18,C288M,-1.54
19,C288D,0.01
20,C288L,-0.83
21,C288T,-0.27
22,C288K,-1.15
23,C288N,-0.51
24,C288S,-0.07

row,Variant,SGCB cell-surface expression functional score (log10)
1,C288A,-0.03
2,C288W,-0.68
3,S279G,-0.07
4,S279I,-0.06
5,S279D,0.24
6,S279M,0.56
7,S279A,0.39
8,S279P,0.24
9,S279T,0.09
10,S279N,0.15
11,S279H,-0.04
12,S279K,-0.05
13,S279C,0.08
14,S279L,0.22
15,S279Y,0.05
16,S279W,-0.2
17,S279R,0.16
18,S279Q,-0.19
19,S279V,0.21
20,S279F,-0.13
21,S279E,0.22
22,L277H,0.19
23,L277Q,-0.65
24,L277S,-0.88

row,Variant,SGCB cell-surface expression functional score (log10)
1,L277A,-0.39
2,L277V,-0.49
3,L277R,-0.27
4,L277M,-0.2
5,L277C,-1.31
6,L277I,0.41
7,L277D,-0.09
8,L277G,-0.19
9,L277K,-1.8
10,L277P,-1.21
11,L277E,0.02
12,L277Y,-0.12
13,L277W,0.44
14,L277F,-0.4
15,L277N,0.08
16,L277T,0.24
17,Q276P,-0.4
18,Q276S,-0.37
19,Q276R,-0.17
20,Q276I,0.1
21,Q276G,0.24
22,Q276M,0.2
23,Q276H,-0.07
24,Q276Y,0.02

row,Variant,SGCB cell-surface expression functional score (log10)
1,Q276N,-0.22
2,Q276E,0.14
3,Q276L,-0.3
4,Q276A,-0.49
5,Q276V,-0.56
6,Q276W,-1.29
7,Q276D,0.34
8,Q276F,-0.23
9,Q276C,-1
10,Q276T,-1.1
11,Q276K,0.11
12,D281P,-0.06
13,D281W,-1.51
14,D281R,-0.24
15,D281C,-1.63
16,D281L,0.08
17,D281T,-0.28
18,D281K,0.25
19,D281H,-1.11
20,D281A,-0.2
21,D281G,-0.06
22,D281N,0.25
23,D281Q,0.18
24,D281M,0.67

row,Variant,SGCB cell-surface expression functional score (log10)
1,D281V,-0.16
2,D281I,-0.27
3,D281S,-0.22
4,D281Y,0.16
5,D281F,0.45
6,D281E,0.11
7,M289R,-0.22
8,M289L,-0.19
9,M289P,-1.06
10,M289Y,0.01
11,M289D,-0.92
12,M289F,-1.2
13,M289W,-1.6
14,M289N,0.11
15,M289A,-1
16,M289E,0.05
17,M289K,-0.23
18,M289G,-1.37
19,M289C,-0.54
20,M289S,-0.79
21,M289V,-0.24
22,M289H,-0.85
23,M289T,-0.81
24,M289I,0.1

row,Variant,SGCB cell-surface expression functional score (log10)
1,M289Q,-1.35
2,V283R,-0.21
3,V283P,-0.19
4,V283Y,-0.55
5,V283E,0.19
6,V283W,-1.26
7,V283L,0.37
8,V283H,-0.24
9,V283N,0.35
10,V283F,-0.17
11,V283K,0.04
12,V283T,-0.38
13,V283M,0.74
14,V283C,0.36
15,V283I,0.38
16,V283D,-0.63
17,V283Q,-0.56
18,V283A,-0.15
19,V283G,0.12
20,V283S,-0.34
21,D275Q,-1.58
22,D275S,-0.06
23,D275L,-0.13
24,D275A,-0.05

row,Variant,SGCB cell-surface expression functional score (log10)
1,D275R,-0.53
2,D275C,-0.13
3,D275Y,0.17
4,D275F,-0.57
5,D275M,0.18
6,D275G,0.01
7,D275H,-0.97
8,D275P,-1.24
9,D275N,-0.12
10,D275V,0.12
11,D275T,-0.08
12,D275K,-0.82
13,D275I,-0.42
14,D275E,-0.21
15,D275W,-0.16
16,S272V,-0.14
17,S272W,-0.13
18,S272Y,-0.29
19,R284K,-0.73
20,R284G,-0.11
21,R284N,-2.05
22,R284Q,0.05
23,R284W,0.31
24,R284F,-0.51

row,Variant,SGCB cell-surface expression functional score (log10)
1,R284H,0.16
2,R284D,-1.55
3,R284E,-1.26
4,R284M,0.28
5,R284V,-1.16
6,R284T,-0.97
7,R284I,-0.39
8,R284Y,0.27
9,R284A,0.33
10,R284S,-0.16
11,R284P,-0.73
12,R284C,0.03
13,R284L,-0.57
14,G278Q,0.09
15,G278N,0.05
16,G278R,0.05
17,G278W,0.16
18,G278P,0.23
19,G278T,0.14
20,G278K,0.27
21,G278S,0.15
22,G278H,-0.29
23,G278A,0.15
24,G278F,0.12

row,Variant,SGCB cell-surface expression functional score (log10)
1,G278I,0.08
2,G278D,0.31
3,G278V,0.32
4,G278M,0.18
5,G278C,0.13
6,G278E,0.27
7,G278Y,0.08
8,G278L,-0.05
9,W282I,0.19
10,W282E,-0.07
11,W282R,0.12
12,W282F,0.36
13,W282A,0.11
14,W282T,-0.1
15,W282K,-0.08
16,W282H,0.22
17,W282S,-0.06
18,W282C,-0.37
19,W282G,0.21
20,W282D,-0.17
21,W282Q,0.08
22,W282P,0.15
23,W282L,0.08
24,W282N,0.08

row,Variant,SGCB cell-surface expression functional score (log10)
1,W282V,0.04
2,W282M,-0.29
3,W282Y,-0.08
4,G280S,0.11
5,G280T,-0.11
6,G280N,0.37
7,G280H,0.05
8,G280W,-0.37
9,G280A,-0.01
10,G280V,0.01
11,G280L,-0.28
12,G280R,-0.45
13,G280I,0.26
14,G280Q,-0.26
15,G280F,0.08
16,G280K,0.07
17,G280D,-0.56
18,G280Y,-0.23
19,G280P,0.06
20,G280M,0.03
21,G280C,-0.75
22,G280E,0.02
